This passage reports Kd results from paper PMC8561282 (Haematologica, 2021).

As a reminder, the Kd is the equilibrium constant for the complex coming apart.

In the assay the target is recombinant glyceraldehyde 3-phosphate dehydrogenase (GAPDH) tetramer (UniProt P04406 1-335). The assay can be described thus: ITC.
recombinant glyceraldehyde 3-phosphate dehydrogenase (GAPDH) tetramer, sequence (P04406 whole entry): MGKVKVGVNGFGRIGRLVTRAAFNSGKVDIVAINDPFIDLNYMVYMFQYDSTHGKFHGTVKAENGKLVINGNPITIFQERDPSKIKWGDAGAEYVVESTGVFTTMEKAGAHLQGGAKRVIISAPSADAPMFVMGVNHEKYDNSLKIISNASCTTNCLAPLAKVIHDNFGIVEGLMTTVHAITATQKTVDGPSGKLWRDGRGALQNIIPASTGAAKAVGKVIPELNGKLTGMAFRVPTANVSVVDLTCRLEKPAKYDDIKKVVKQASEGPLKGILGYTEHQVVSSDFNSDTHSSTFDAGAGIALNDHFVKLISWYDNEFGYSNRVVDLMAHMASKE

B1: recombinantly expressed band 3 (AE1) peptide, residues 1-56 (domain or fragment)
chain: MEELQDDYEDMMEENLEQEEYEDPDIPESQMEEPAAHDTEATATDYHTTSHPGTHK
Turning to B1, the Kd was determined as 2.56 mM.
For MEELQDDYEDMMEENLEQEEYEDPDIPESQ (domain or fragment) [recombinantly expressed AE1 peptide spanning residues 1-30] the value was 44.8 mM.
